Patent US10428140B2, “Anti-EphA4 antibody” (EISAI R&D MANAGEMENT CO., LTD., priority 2015, dated 2019)

Tests used:
[1] = test system: human iPS cell-derived motor neuron / variant human SOD1 (G93A)-expressing astrocyte coculture; assay: Motor neuron protection in in vitro ALS model derived from human iPS cells; assay type: cell-based; settings: antibody A 10, 30, 100 nM; EphA4-Fc 3, 10, 30 nM; KYL peptide 1, 3, 10 μM; 2 days
Description: Human iPS cells were maintained and cultured according to the following steps. Human iPS cells (201B7) cryopreserved in liquid nitrogen using Stem cell banker (TAKARA) were taken out of the gas phase of liquid nitrogen and immediately suspended and thawed in 5 mL of a human iPS cell culture medium (Essential 8, Thermo Fisher Scientific) prewarmed to 37° C. The cell suspension was recovered into a 15-mL conical tube (Falcon) and centrifuged (1000 rpm, 5 min, room temperature), followed by the removal of the supernatant. The cells were suspended in a fresh medium and then disseminated to a ϕ60 mm cell culture dish (Falcon BD) coated with 0.5 μg/cm^2 Human recombinant vitronectin (Invitrogen) in advance. 10 μM Y-27632 (Wako Pure Chemical Industries) was added thereto, and the cells were maintained and cultured in a CO2 incubator (5% CO2, 37° C.). Medium replacement was performed every day, and the cells were subjected to the experiment when reaching confluency.
The culture medium of the maintained and cultured human iPS cells was aspirated, and the cells were washed with 2 mL of PBS (Wako Pure Chemical Industries). […] Then, the number of cells was counted using a counting chamber. […]

[2] = molecular target: T1, mouse EphA4 (binding to mouse Ephrin A1) (Mus musculus, UniProt Q03137); assay: Mouse EphA4-mouse ligand binding inhibition ELISA (Ephrin A1-Fc); settings: mouse EphA4-mouse ligand binding inhibition
T1 construct: made in house; host or cells: HEK293EBNA cells
Description: Antibody A obtained in Example 1 was evaluated for its inhibitory activity against the binding between mouse EphA4 and its mouse ligand according to the following steps. Each well of a 96-well plate (Nunc) was coated with an anti-alkaline phosphatase antibody (Thermo Fisher Scientific). After incubation overnight at 4° C., each well was blocked with 1% BlockAce (DS Pharma Biomedical) at room temperature for 1 hour. After washing with 0.05% Tween 20/PBS (Thermo Fisher Scientific) three times, the mouse EphA4 extracellular region-SEAP-His protein obtained by the method of Example 1 was added (final concentration: 10 nM) to each well and incubated at room temperature for 1 hour. After washing three times, ligands and serially diluted antibody A (0, 0.001, 0.003, 0.01, 0.03, 0.1, 0.3, 1,3, 10, 30, 100, 300, and 1000 nM) or a known EphA4 inhibitor KYL peptide (KYLPYWPVLSSL, 0, 0.003, 0.01, 0.03, 0.1, 0.3, 1, 3, 10, 30, and 100 μM, its synthesis was outsourced to Hokkaido System Science) or compound 1 (0, 0.03, 0.1, 0.3, 1,3, 10, 30, 100, 300, and 1000 μM, Formula 1, Matrix Scientific) were added to each well. The ligands used were mouse Ephrin A1-Fc chimera (R&D Systems, final concentration: 20 nM) and mouse Ephrin B2-Fc chimera (R&D Systems, final concentration: 0.6 nM). […] The absorbance at 450 nm was read using a microplate reader (Molecular Devices).

T1 sequence (Q03137 with tags, fused parts or gaps): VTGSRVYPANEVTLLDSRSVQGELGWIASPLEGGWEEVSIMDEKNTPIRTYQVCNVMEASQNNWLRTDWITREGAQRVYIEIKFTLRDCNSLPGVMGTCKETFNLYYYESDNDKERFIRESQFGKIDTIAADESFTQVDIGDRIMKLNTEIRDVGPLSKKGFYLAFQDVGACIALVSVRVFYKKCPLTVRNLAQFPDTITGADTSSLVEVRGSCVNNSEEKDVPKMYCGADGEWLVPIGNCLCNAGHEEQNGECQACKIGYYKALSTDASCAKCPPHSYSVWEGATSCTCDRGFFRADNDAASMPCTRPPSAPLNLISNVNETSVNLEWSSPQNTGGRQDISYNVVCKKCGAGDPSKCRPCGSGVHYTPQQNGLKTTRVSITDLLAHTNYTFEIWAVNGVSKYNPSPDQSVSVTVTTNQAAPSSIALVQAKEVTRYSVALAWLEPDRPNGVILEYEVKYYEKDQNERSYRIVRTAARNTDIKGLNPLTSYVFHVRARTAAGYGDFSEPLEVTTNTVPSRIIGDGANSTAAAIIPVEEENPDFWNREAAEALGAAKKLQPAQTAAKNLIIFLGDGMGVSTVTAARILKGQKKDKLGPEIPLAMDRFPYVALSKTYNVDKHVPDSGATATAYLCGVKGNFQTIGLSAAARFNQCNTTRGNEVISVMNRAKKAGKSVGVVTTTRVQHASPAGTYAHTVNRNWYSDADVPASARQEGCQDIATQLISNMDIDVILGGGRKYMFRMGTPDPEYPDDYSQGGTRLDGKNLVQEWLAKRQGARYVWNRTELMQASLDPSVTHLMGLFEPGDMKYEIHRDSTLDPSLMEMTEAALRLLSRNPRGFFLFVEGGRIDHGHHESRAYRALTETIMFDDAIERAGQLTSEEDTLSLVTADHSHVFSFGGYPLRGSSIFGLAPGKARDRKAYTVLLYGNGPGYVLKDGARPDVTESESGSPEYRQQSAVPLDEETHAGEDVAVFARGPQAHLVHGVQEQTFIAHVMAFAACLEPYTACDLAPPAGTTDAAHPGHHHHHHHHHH

- activity relative to KYL peptide (times stronger) [2]: ≥ 1,000 times
B1: antibody A: mouse anti-EphA4 monoclonal antibody, IgG1/κ; heavy chain variable region SEQ ID NO: 11, light chain variable region SEQ ID NO: 13 (antibody, listed as Mus musculus, V domains shown)
VH: QIQLVQSGPELKKPGETVKISCKASGYTFTDYSMHWVKQAPGKGLKWMGWINTETGEPTYADDFKGRFAFSLETSASTAYLQINNLKNEDTATYFCARIPLYYYGSRYWYFDVWGAGTTVTVSS
VL: DIQMTQSPASLSVSVGETVTITCRASENIYRNLAWYQQKQGKSPQLLVYAATNLADGVPSRFSGSGSGTQYSLKINSLQSEDFGSYYCQHFWGTPWTFGGGTKLEIK
- suppression of motor neuron death / motor neuron protective effect (in words) [1]: suppressed, in a concentration-dependent manner
